Data on one protein can be found in patent publication US7556950 (Takeda / Millennium, dated 2009).

The series concerns the molecule itself. Nature of the series: analytical size-exclusion chromatography; self-association (homodimer) of the purified catalytic domain.

B1: recombinant catalytic domain of human phosphodiesterase 4-D3 (PDE4-D3), residues 253-580 of SEQ. ID No. 1, after removal of the N-terminal 6x-histidine tag … (enzyme)
chain: GAMDPTEQEDVLAKELEDVNKWGLHVFRIAELSGNRPLTVIMHTIFQERDLLKTFKIPVDTLITYLMTLEDHYHADVAYHNNIHAADVVQSTHVLLSTPALEAVFTDLEILAAIFASAIHDVDHPGVSNQFLINTNSELALMYNDSSVLENHHLAVGFKLLQEENCDIFQNLTKKQRQSLRKMVIDIVLATDMSKHMNLLADLKTMVETKKVTSSGVLLLDNYSDRIQVLQNMVHCADLSNPTKPLQLYRQWTDRIMEEFFRQGDRERERGMEISPMCDKHNASVEKSQVGFIDYIVHPLWETWADLVHPDAQDILDTLEDNREWYQSTIPQSP
notes: The limits 24-357 come from the claims, which define the protein of the Rolipram complex this way; The purified protein was buffer-exchanged with a 2-molar excess of the small molecule Rolipram; Expressed in Hi5 insect cells; also called PDE4D3 catalytic domain; purified PDE4-D3
Regarding B1, the binding result was “binds”.
